From US20080274112A1, “Nogo Receptor Antagonists” (priority 2003, published 2008) come the findings set out here.

“Also recorded” adds a separate entry of the source.

Assay [1] deals with T1, rat NgR1 (Rattus norvegicus, UniProt Q99M75).
T1 sequence (Q99M75 27-447): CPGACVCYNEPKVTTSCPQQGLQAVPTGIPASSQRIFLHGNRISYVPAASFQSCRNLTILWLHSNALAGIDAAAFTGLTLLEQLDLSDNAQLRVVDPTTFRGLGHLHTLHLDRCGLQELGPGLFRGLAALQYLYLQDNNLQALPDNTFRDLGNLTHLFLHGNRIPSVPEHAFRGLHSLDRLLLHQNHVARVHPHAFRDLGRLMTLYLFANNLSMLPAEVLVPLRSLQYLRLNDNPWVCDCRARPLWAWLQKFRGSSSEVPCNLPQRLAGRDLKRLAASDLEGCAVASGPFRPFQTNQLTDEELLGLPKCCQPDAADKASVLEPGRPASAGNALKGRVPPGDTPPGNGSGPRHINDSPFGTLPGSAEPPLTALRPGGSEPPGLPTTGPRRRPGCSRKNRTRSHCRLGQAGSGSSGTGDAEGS
Description: Antibody binding to rat Nogo receptor-1.

The target in assay [2] is T2, MAG + sNogoR344-Fc (Rattus norvegicus, UniProt Q99M75, A303T/C287S/C43R/E284G/T53A).
T2 construct: amino acid residues 26-344 of rat Nogo receptor-1; made in house
T2 sequence (Q99M75 26-344 C43R/T53A/E284G/C287S/A303T): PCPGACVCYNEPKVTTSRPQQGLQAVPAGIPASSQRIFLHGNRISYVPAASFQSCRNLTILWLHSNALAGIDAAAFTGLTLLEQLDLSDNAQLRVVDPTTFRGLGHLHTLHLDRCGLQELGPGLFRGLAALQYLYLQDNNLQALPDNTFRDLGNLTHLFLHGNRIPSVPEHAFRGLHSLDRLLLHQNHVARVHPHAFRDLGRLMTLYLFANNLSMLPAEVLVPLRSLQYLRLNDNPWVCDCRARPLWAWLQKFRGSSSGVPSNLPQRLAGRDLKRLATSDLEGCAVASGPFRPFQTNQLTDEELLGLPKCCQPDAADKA
The assay can be described thus: mAb/Fab inhibition of MAG binding to sNogoR344-Fc (ELISA). The method, then:
0.5 μg of a soluble Nogo receptor-1 fusion protein comprising amino acid residues 26-344 of rat Nogo receptor-1 and the hinge and Fc region of the rat IgG1 molecule (sNogoR344-Fc) produced as described below was immobilized on 250 μg of protein-A- or wheatgerm agglutinin-conjugated SPA beads (Amersham Pharmacia Biotech) for 2 hours at 25° C. SPA beads coupled with Fc-sNogoR-1, anti-Nogo receptor-1 mAb and 1 μl ^125I-Nogo66 (Amersham, 2000 Ci/mmol, 1 nM) in 50 μl of the HEPES-buffered incubation medium (10 mM HEPES, pH 7.4, 0.1% bovine serum albumin, 0.1% ovalbumin, 2 mM MgCl2, 2 mM CaCl2 and protease inhibitors) was added to each sample well. After 16 hours, radioactivity was measured in quadruplicate samples using a TopCount® (Packard). IC50 values were calculated from a curve-fit analysis (FIG. 3) (PRISM, GraphPad Software, NJ). In some experiments, we also used AP-ligand conjugates (e.g. AP-Nogo66) and detected binding by monitoring alkaline phosphatase activity. We also assayed the ability of the mAbs to block binding of the ligands MAG-Fc and AP-OM-gp to Nogo receptor-1.
The calculated IC50 for Nogo66 for 7E11 and 1H2 were 400 nM and 60 nM, respectively. The data from ELISAs monitoring mAb-mediated inhibition of binding of the three ligands to Nogo receptor-1 are summarized in Table 6.
We also performed ELISA binding assays using the Fab-phage 14D5.
For orientation: In an ELISA, binding on a coated surface is turned into a signal by an enzyme label.

The target in assay [3] is T3, rat NgR1 (sNgR310) fragments (Rattus norvegicus, UniProt Q99M75, C43R/T53A).
T3 construct: made in house
T3 sequence (Q99M75 27-229 C43R/T53A): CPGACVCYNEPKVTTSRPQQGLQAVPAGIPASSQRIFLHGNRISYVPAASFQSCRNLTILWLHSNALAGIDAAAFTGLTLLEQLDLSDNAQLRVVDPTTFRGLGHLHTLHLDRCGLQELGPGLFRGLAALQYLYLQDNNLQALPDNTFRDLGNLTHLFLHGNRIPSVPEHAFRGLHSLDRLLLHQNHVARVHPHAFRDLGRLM
The assay can be described thus: Western blot of acid/CNBr fragments of sNgR310 probed with 7E11. Type of assay: binding. The method, then: (§1) A recombinant fragment of the rat NgR1 that contains all 8 LRR domains and the N- and C-terminal caps (sNgR310) was treated with either acid or cyanogen bromide (CNBr) and separated the fragments by gel electrophoresis. Untreated sNgR310 migrates with an apparent molecular weight of 42 kDa. Acid treatment of sNgR310 produced two major cleavage products of 15 kDa (aa 27-aa 122) and 30 kDa (aa 123-aa 310). CNBr treatment generated three fragments, a 33/35 kDa doublet (aa 27-aa 229), which may represent fragments with heterogeneous glycosylation, a 10 kDa product (aa 241-aa 310), and an 11-amino-acid fragment (aa 230-aa 240), which is not retained on the gel. […] Both the 15 kDa acid fragment and the 35 kDa CNBr fragment contained the sequence LDLSDNAQLRVVDPTT (SEQ ID NO: 1), consistent with 7E11 binding to a single epitope on NgR1.

Assay [4] addresses T4, rat NgR1 (sNgR310) fragments (Rattus norvegicus, UniProt Q99M75, A303T/C287S/E284G).
T4 construct: made in house
T4 sequence (Q99M75 123-310 E284G/C287S/A303T): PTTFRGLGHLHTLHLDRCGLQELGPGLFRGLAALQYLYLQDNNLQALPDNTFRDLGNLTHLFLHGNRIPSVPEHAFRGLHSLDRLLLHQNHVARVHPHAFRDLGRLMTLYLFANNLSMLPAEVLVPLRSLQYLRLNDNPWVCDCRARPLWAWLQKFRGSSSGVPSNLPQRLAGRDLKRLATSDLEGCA
The assay is described as above. The class given is binding. The method, then: as §1

Assay [5] deals with T5, rat NgR1 (sNgR310) fragments (Rattus norvegicus, UniProt Q99M75, C43R/T53A).
T5 construct: made in house
T5 sequence (Q99M75 27-122 C43R/T53A): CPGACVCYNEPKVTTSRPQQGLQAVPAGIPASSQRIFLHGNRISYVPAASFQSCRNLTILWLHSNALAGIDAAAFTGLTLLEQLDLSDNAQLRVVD
The description is as above. Type of assay: binding. The procedure:
as §1
This is another data set of the same source.

In assay [6] the target is T6, rat NgR1 (sNgR310) fragments (Rattus norvegicus, UniProt Q99M75, A303T/C287S/C43R/E284G/T53A).
T6 construct: made in house
T6 sequence (Q99M75 27-310 C43R/T53A/E284G/C287S/A303T): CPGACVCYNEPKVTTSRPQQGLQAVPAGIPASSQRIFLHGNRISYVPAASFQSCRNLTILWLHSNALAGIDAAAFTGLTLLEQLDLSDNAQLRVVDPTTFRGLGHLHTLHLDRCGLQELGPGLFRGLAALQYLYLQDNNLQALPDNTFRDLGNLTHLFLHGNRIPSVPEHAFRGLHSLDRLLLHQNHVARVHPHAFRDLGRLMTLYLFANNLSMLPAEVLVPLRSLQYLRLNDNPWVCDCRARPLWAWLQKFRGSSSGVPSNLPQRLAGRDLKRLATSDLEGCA
The assay is described as above. The class given is binding. The procedure:
as §1

B1: 7E11: murine monoclonal anti-Nogo receptor-1 antibody, IgG1 kappa, ATCC PTA-4587; immunogen rat Nogo receptor-1 residues 110-125 (antibody, V domains shown)
VH: VQLQESGAELVMPGASVKMSCKASGYTFTDYWMHWVKQRPGQGLEWIGAIDPSDSYSSYNQNFKGKATLTVDGSSSTAYMQLSSLTSEDSAVYYCARRITEAGAWFAYWGQGTTVT
VL: DVVMTQTPLSLPVSLGDQASISCRSSQSLVHSNGNTYLHWYLQKPGQSPKLLIYKVSNRFSGVPDRFSGSGSGTDFTLKISRVDAEDLGVYFCSQSTHVPFTFGGGTKLEIKRADAAPTVSISHH
As a reminder, the EC50 is the concentration at which the effect is half-maximal. As to B1, in assay [1], the “binding to rat NgR1” value was “bound; also recorded: binds well”. Further, in assay [2], the “inhibition of binding of MAG to sNogoR344-Fc” value is listed as “inhibited binding”. Further, the “percent displacement, MAG + sNogoR344-Fc” value in assay [2] (30 nM antibody) is reported as 30 nM (60%). Also, the EC50 in assay [2] (curve-fit analysis) worked out at 500 nM. Also, in assay [3], the “7E11 binding to 35 kDa CNBr fragment (aa 27-aa 229)” value is listed as “bound”. Also, the “7E11 binding to 30 kD acid fragment (aa 123-aa 310)” value in assay [4] is “did not bind”. Moreover, the “7E11 binding to 15 kDa acid fragment (aa 27-aa 122)” value in assay [5] was “bound”. Besides, the “7E11 binding to intact rat NgR1 (aa 27-aa 310)” value in assay [6] is listed as “bound”.
